Some targets named below: FL LbpB ΔCaHD; LbpB C-lobe ΔCaHD; LbpB C-lobe.
Holding throughout (assay): BLI
A general note: BLI is a label-free optical method that tracks binding on a fibre tip over time.

B1: bovine lactoferrin (Lf) (natural protein)
chain: APRKNVRWCTISQPEWFKCRRWQWRMKKLGAPSITCVRRAFALECIRAIAEKKADAVTLDGGMVFEAGRDPYKLRPVAAEIYGTKESPQTHYYAVAVVKKGSNFQLDQLQGRKSCHTGLGRSAGWIIPMGILRPYLSWTESLEPLQGAVAKFFSASCVPCIDRQAYPNLCQLCKGEGENQCACSSREPYFGYSGAFKCLQDGAGDVAFVKETTVFENLPEKADRDQYELLCLNNSRAPVDAFKECHLAQVPSHAVVARSVDGKEDLIWKLLSKAQEKFGKNKSRSFQLFGSPPGQRDLLFKDSALGFLRIPSKVDSALYLGSRYLTTLKNLRETAEEVKARYTRVVWCAVGPEEQKKCQQWSQQSGQNVTCATASTTDDCIVLVLKGEADALNLDGGYIYTAGKCGLVPVLAENRKSSKHSSLDCVLRPTEGYLAVAVVKKANEGLTWNSLKDKKSCHTAVDRTAGWNIPMGLIVNQTGSCAFDEFFSQSCAPGADPKSRLCALCAGDDQGLDKCVPNSKEKYYGYTGAFRCLAEDVGDVAFVKNDTVWENTNGESTADWAKNLNREDFRLLCLDGTRKPVTEAQSCHLAVAPNHAVVSRSDRAAHVKQVLLHQQALFGKNGKNCPDKFCLFKSETKNLLFNDNTECLAKLGGRPTYEEYLGTEYVTAIANLKKCSTSPLLEACAFLTR
In general, Kd refers to the concentration at which binding is half-saturated. In the case of B1, the equilibrium dissociation constant (Kd) was 1280 nM in the assay with FL LbpB ΔCaHD, 2900 nM in the assay with LbpB C-lobe ΔCaHD and 200 nM with LbpB C-lobe.
